Measurements taken from the RNAGym collection of RNA variant scans (doi:10.1021/acssynbio.7b00057).

B1: Pistol ribozyme (parent)
chain: GGGUCGUUGUUCCAUAAUCGCGUGGAUAUGGCACGCAAGUUUCUACCGGGCACCGUAAAUGUCCGACUGGAGCCGUUCGGGCGGCUAUAAACAGACCUCAGGCCCGAAGCGUGGCGGCACCUGCCGCCGGUGGUAAAAAAGAUCGGAAGAGCACACGUCU

Variants of: B1
Experiment: aptazyme ON/OFF ratio, guanine; higher = stronger switching; co-transcriptional cleavage with and without guanine
For U7A U8G G9A U10G U11G C12U, the “aptazyme ON/OFF ratio” value was 1.32. In the case of U7A U8G G9A U10G U11G C12G, the “aptazyme ON/OFF ratio” value is reported as 1.24. In the case of U7A U8G G9A U10G U11G C12A, the “aptazyme ON/OFF ratio” value is reported as 1.46. In the case of U7A U8G G9C U10C C12U, the “aptazyme ON/OFF ratio” value is reported as 1.24. For U7A U8G G9C U10C C12A, the “aptazyme ON/OFF ratio” value was 1.15. In the case of U7A U8G G9C U10C C12G, the “aptazyme ON/OFF ratio” value is reported as 1.4. With U7A U8G G9C U10A C12G C13A the “aptazyme ON/OFF ratio” value was 1.25. With U7A U8G G9C U10A C12G C13G the “aptazyme ON/OFF ratio” value was 1.28. For U7A U8G G9C U10A C12G C13U, the “aptazyme ON/OFF ratio” value was 1.28. For U7A U8G G9A U10C U11A C13G, the “aptazyme ON/OFF ratio” value was 1.1. With U7A U8G G9A U10C U11A C13U the “aptazyme ON/OFF ratio” value was 1.2. For U7A U8G G9A U10C U11A C13A, the “aptazyme ON/OFF ratio” value was 1.16. In the case of U7A U8G G9C U10G C12A C13A, the “aptazyme ON/OFF ratio” value is reported as 1.31. With U7A U8G G9C U10G C12A C13G the “aptazyme ON/OFF ratio” value was 1.1. In the case of U7A U8G G9C U10G C12A C13U, the “aptazyme ON/OFF ratio” value is reported as 1.56. With U7A U8G G9A U10G C13A the “aptazyme ON/OFF ratio” value was 1.18. In the case of U7A U8G G9A U10G C13G, the “aptazyme ON/OFF ratio” value is reported as 1.09. With U7A U8G G9A U10G C13U the “aptazyme ON/OFF ratio” value was 1.31. For U7A U8G G9A U10G U11G C12A C13A, the “aptazyme ON/OFF ratio” value was 1.65. In the case of U7A U8G G9A U10G U11G C12A C13U, the “aptazyme ON/OFF ratio” value is reported as 1.5. With U7A U8G G9A U10G U11G C12A C13G the “aptazyme ON/OFF ratio” value was 1.34. For U7A U8G G9C U10C U11C C13G, the “aptazyme ON/OFF ratio” value was 1.02. With U7A U8G G9C U10C U11C C13A the “aptazyme ON/OFF ratio” value was 0.995. In the case of U7A U8G G9C U10C U11C C13U, the “aptazyme ON/OFF ratio” value is reported as 1.04. With U7A U8G G9C U10C U11G C13A the “aptazyme ON/OFF ratio” value was 1.25. For U7A U8G G9C U10C U11G C13U, the “aptazyme ON/OFF ratio” value was 1.23. For U7A U8G G9C U10C U11G C13G, the “aptazyme ON/OFF ratio” value was 1.26. For U7A U8G G9C U10A U11G C12G, the “aptazyme ON/OFF ratio” value was 1.35. With U7A U8G G9C U10A U11G C12U the “aptazyme ON/OFF ratio” value was 1.08. For U7A U8G G9C U10A U11G C12A, the “aptazyme ON/OFF ratio” value was 1.07. For U7A U8G G9A U11A C12A C13G, the “aptazyme ON/OFF ratio” value was 1.21. In the case of U7A U8G G9A U11A C12A C13A, the “aptazyme ON/OFF ratio” value is reported as 1.39. In the case of U7A U8G G9A U11A C12A C13U, the “aptazyme ON/OFF ratio” value is reported as 1.16. For U7A U8G G9A U11A C12G C13A, the “aptazyme ON/OFF ratio” value was 1.19. In the case of U7A U8G G9A U11A C12G C13U, the “aptazyme ON/OFF ratio” value is reported as 1.25. In the case of U7A U8G G9A U11A C12G C13G, the “aptazyme ON/OFF ratio” value is reported as 1.33. For U7A U8G G9A U10G U11A C12U C13G, the “aptazyme ON/OFF ratio” value was 1.35. With U7A U8G G9A U10G U11A C12U C13A the “aptazyme ON/OFF ratio” value was 1.7. With U7A U8G G9A U10G U11A C12U C13U the “aptazyme ON/OFF ratio” value was 1.27. In the case of U7A U8G G9A U10C U11A, the “aptazyme ON/OFF ratio” value is reported as 1.68. With U7A U8G G9A U10C U11G the “aptazyme ON/OFF ratio” value was 1.74. In the case of U7A U8G G9A U10C U11C, the “aptazyme ON/OFF ratio” value is reported as 1.02. For U7A U8G G9C U10G C13G, the “aptazyme ON/OFF ratio” value was 1.19. In the case of U7A U8G G9C U10G C13A, the “aptazyme ON/OFF ratio” value is reported as 1.52. With U7A U8G G9C U10G the “aptazyme ON/OFF ratio” value was 1.46. With U7A U8G G9C U10A the “aptazyme ON/OFF ratio” value was 1.24. For U7A U8G G9C U10C, the “aptazyme ON/OFF ratio” value was 2.58. With U7A U8G G9C C12G C13U the “aptazyme ON/OFF ratio” value was 1.34. In the case of U7A U8G G9C C12G C13A, the “aptazyme ON/OFF ratio” value is reported as 1.36. With U7A U8G G9C C12G C13G the “aptazyme ON/OFF ratio” value was 1.18. With U7A U8G G9A U10C U11C C12U C13G the “aptazyme ON/OFF ratio” value was 1.08. In the case of U7A U8G G9A U10C U11C C12U C13U, the “aptazyme ON/OFF ratio” value is reported as 1.07. In the case of U7A U8G G9A U10C U11C C12U C13A, the “aptazyme ON/OFF ratio” value is reported as 1.06. With U7A U8G G9A U10C U11A C12G C13G the “aptazyme ON/OFF ratio” value was 1.13. In the case of U7A U8G G9A U10C U11A C12G C13U, the “aptazyme ON/OFF ratio” value is reported as 1.22. In the case of U7A U8G G9A U10C U11A C12G C13A, the “aptazyme ON/OFF ratio” value is reported as 1.04. With U7A U8G G9C U10C U11C C12G the “aptazyme ON/OFF ratio” value was 1.05. In the case of U7A U8G G9C U10C U11C C12A, the “aptazyme ON/OFF ratio” value is reported as 1.06. In the case of U7A U8G G9C U10C U11C C12U, the “aptazyme ON/OFF ratio” value is reported as 0.975. With U7A U8G G9A U10C U11G C12G C13A the “aptazyme ON/OFF ratio” value was 1.22. In the case of U7A U8G G9A U10C U11G C12G C13G, the “aptazyme ON/OFF ratio” value is reported as 1.16. For U7A U8G G9A U10C U11G C12G C13U, the “aptazyme ON/OFF ratio” value was 1.1. For U7A U8G G9C U10G C12G, the “aptazyme ON/OFF ratio” value was 1.15. With U7A U8G G9C U10G C12A the “aptazyme ON/OFF ratio” value was 1.27. In the case of U7A U8G G9C U10G C12U, the “aptazyme ON/OFF ratio” value is reported as 1.44. In the case of U7A U8G G9C U10A U11C C12A, the “aptazyme ON/OFF ratio” value is reported as 1.29. In the case of U7A U8G G9C U10A U11C C12U, the “aptazyme ON/OFF ratio” value is reported as 1.04. In the case of U7A U8G G9C U10A U11C C12G, the “aptazyme ON/OFF ratio” value is reported as 1.22. With U7A U8G G9A U11C C12U the “aptazyme ON/OFF ratio” value was 1.39. With U7A U8G G9A U11C C12G the “aptazyme ON/OFF ratio” value was 1.56. For U7A U8G G9A U11C C12A, the “aptazyme ON/OFF ratio” value was 1.46. In the case of U7A U8G G9A U10G C12A C13U, the “aptazyme ON/OFF ratio” value is reported as 1.31. For U7A U8G G9A U10G C12A C13G, the “aptazyme ON/OFF ratio” value was 1.13. For U7A U8G G9A U10G C12A C13A, the “aptazyme ON/OFF ratio” value was 1.39. For U7A U8G G9A U10C C13A, the “aptazyme ON/OFF ratio” value was 1.03. For U7A U8G G9A U10C C13U, the “aptazyme ON/OFF ratio” value was 1.25. For U7A U8G G9A U10C C13G, the “aptazyme ON/OFF ratio” value was 1.1. With U7A U8G G9A U10C U11G C12A C13A the “aptazyme ON/OFF ratio” value was 1.18. With U7A U8G G9A U10C U11G C12A C13G the “aptazyme ON/OFF ratio” value was 1.19. For U7A U8G G9A U10C U11G C12A C13U, the “aptazyme ON/OFF ratio” value was 1.28. For U7A U8G G9C U10A U11C C12A C13U, the “aptazyme ON/OFF ratio” value was 1.5. With U7A U8G G9C U10A U11C C12A C13G the “aptazyme ON/OFF ratio” value was 1.28. For U7A U8G G9C U10A U11C C12A C13A, the “aptazyme ON/OFF ratio” value was 1.17.
